Test results taken from the DeepSol protein solubility set.

Experiment: soluble on expression in E. coli; label from the status in PepcDB or PDB records

Sequence | soluble on expression in E. coli
MSIHSASPIIRRKSRKIWVGNVPVGGDAPIAVQSMTNTETCDVAATVAQIRRLEDAGADIVRVSVPDMDAAEAFGKIKQQVNVPLVADIHFDYRIALRVAELGVDCLRINPGNIGREDRVKAVVDAARERNIPIRIGVNAGSLEKDLQKKYGEPTPEALLESAMRHVDHLDKLDFQNFKVSVKASDVFMAVAAYRLLARQIEQPLHLGITEAGGLRSGTVKSAVGLGMLLAEGIGDTIRISLAADPVEEIKVGFDILKSLHLRSRGINFIACPSCSRQNFDVVKTMNELEGRLEDLLVPMDVAVIGCVVNGPGEAKEAHVGLTGGTPNLVYIDGKPSQKLTNDNLVDELERLIRQKAAEKAEADASLIARG | not soluble
MGSDKIHHHHHHMTYLVTGATGGLGGYALNYLKELVPMSDIYALVRSEEKGADLKAAGFNIRVGDYSDAESMKQAFVGIDRVLFVSGAPGNRQVEHENVVNAAKAAGVSYIAYTSFAGADKSTSALAEDHFFTEKVIEKSGIAHTFLRNNWYFENEMPMIGGALSAGKFVYAAENGKVGWALKREYAEVAAKAVAGADFPEILELSGPLMTYEELTKALKEATGKDFDVISSDDKGFVENLVSAGLPQPVAEMFLSFQHDIKNDQLDVTSDDFEKALGKPLTNRVDALRELLK | not soluble
MGHHHHHHSHMVSSNFWFKYPKTCSKVEHFVSILGKCFESPWTTKALSETACEDSEENKQRITGAQTLPKHVSTSSDEGSPSASTPMINKTGFKFSAEKPVIEVPSMTILDKKDGEQAKALFEKVRKFRAHVEDSDLIYKLYVVQTASPFPNQ | not soluble
MSLAKYKKLFEPYTLNNDVVLKNRLVVAPLTIYDSGPDGELTPAAHNFWRNRFRGFGTWIVPFTNVHPSGIGFESPNAFHEENLPTLKAYATISHEQGAKAIIQLAHAGIHADPAMTKGYDLMGPSNLPYMGVRAMTDSEVREMVNAFAYATELAISAGLDGVEIHGANGWLIQQFVSETYNQRTDHWGGSVEKRFNFPLAIIDAIEAVRHKYHRPDFIVGYRFSPEEPGEVGLTMTETLALVDRLLDKPLQYIHISLWNFYKKIRRGGDVKKTRMEAVHDRINGRLPFIGVGDLFAEEQGLKAFNTGWADLLAVGGSVELNPNLIELIKTGQEDQIQSEFDWNEMDSYRFTPAMLYGTLAGNAMFPKVKEGHHHHHH | soluble
MVKSIVILIETVTMKIPAVYSDGSFKTFNDSETTAQKLVDSGVVNTFAFGPTLVENGKVAVSENEEVGQDMADNPRTAIVVNEESDRSVHYIVIVSDGRTSESSGLTLYEMAELMKSYGVMTGYNLDVGDSSTMYSNGQVINKPTRKRKQNLRKGGERYRLHRLLKNLLASTFSPPILVLEHHHHHH | soluble
MFERLREDIQSVFHRDPAARNAFEVLTCYPGMHAIWLHRLGNALWRRDFKWLARLVSNFGRWLTGIEIHPGATIGRRFFIDHGMGIVIGETAEIGDDVTLYQGVTLGGTSWNKGKRHPTLENGVVVGAGAKVLGPFTVGAGAKIGSNAVVTKAVPAGATAVGIPGRIIVKSEDTEVEAKRKAMAEKIGFDAYGVSGDMPDPVARAIGQMLDHLQAVDERLEGMCGALTKMGSDYCAKELPALPEDDFSLEHHHHHH | soluble
MKVRVKAPCTSANLGVGFDVFGLCLKEPYDVIEVEAIDDKEIIIEVDDKNIPTDPDKNVAGIVAKKMIDDFNIGKGVKITIKKGVKAGSGLGSSAASSAGTAYAINELFKLNLDKLKLVDYASYGELASSGAKHADNVAPAIFGGFTMVTNYEPLEVLHIPIDFKLDILIAIPNISINTKEAREILPKAVGLKDLVNNVGKACGMVYALYNKDKSLFGRYMMSDKVIEPVRGKLIPNYFKIKEEVKDKVYGITISGSGPSIIAFPKEEFIDEVENILRDYYENTIRTEVGKGVEVV | soluble
MATKKTFTDETYFKLSEAVYQDGTLNSKKINIELSDRTKSNWKVVSKLNDRATNTQAFAVIPEEKGKDGKIYYNHNNMIFVYRGTKESKDFGSDIINVFAGRNSRTSLDRKSKNPFQVSKEWTEEVLKEFNPKNPTSTGHSLGGALSHYNSILYDFNATTYAAPNIYQLLPEDKQKKVRDGFYNNSIIDFTHDDDMIGTFDQFSSPIIGSQYIAERNNVKVGAKGLFGAIPGHYNETFEGCFSSDGTMKLKVDVDSIIKHAQDIDDIIQSLQTNNADLENLEEKLQIGSKKIQNQLEEEIRIGGAYSELTTWDIDDVLTELCTKYKNGVYCFYNPNEFEKYYEMNHQTRRLLKNFQIELIDAAQSFRETDTRLGKWISNNN | not soluble
KGYDSHKIALAQSETEMRNLSHSLAEHATHTFQGADVVLDDIVSFMKWRPHPSPVFNERLRALADNLPQLSDVAILDADGQLTYASVKPVPALDNSDRSYFRYHRANDDHTLLITGPIQSRTSGVWVFVVSRRLETTDGKFFGVVVATIESEYFSTFYKTFDLGPGGSISLLHSDGRLLIQWPSLQTGRDMANMVLFQKALPRSPDGYYLTVSPFDGLTKYLAYRRVSRYPLVVTVARTEDSVLSGWREAVRSD | soluble
GPGSMQRLFFRSTCARVRCADLRLKPPVSIPQVTFQTVAFSSSAAGAAVRSGAEGTNTTTKRRSGFGGGAGGGGPVKDRYPPPATDLGDPRRRLAVLVDASSVDPRVFRNTILPAALKVGTPVLIRIFSVQLSSEWEPLVAGSGGTRESATSTEPEWKTSGTANDGREEVSGAAGSRDSGAWCPPVEFFRVERFIPVPMQMEADANHIFDFRKQNQIEAVAFVCGEVDRGVFEGFLPNIAGNGFNQYVLDELGMAKEVLEDGRSEDGTPTVQK | soluble
MCSTFMHKFYNSFYFGVMLTTRKEEQMLSKIVWSLLKPQLSSRSYLYNKFVVPPLQIIYVQ | soluble
MGHHHHHHHHHHSSGHIDDDDKHMKNKKDKGLLSGKLTPAQSKNPAKNELYLVEGDSAGGSAKQGRDRKFQAILPLRGKVINTAKAKMADILKNEEINTMIYTIGAGVGADFSIEDANYDKIIIMTDADTDGAHIQTLLLTFFYRYMRPLVEAGHVYIALPPLYKMSKGKGKKEEVAYAWTDGELEELRKQFGKGATLQRYKGLGEMNADQLWETTMNPETRTLIRVTIEDLARAERRVNVLMGDKVEPRRKWIEDNVKFTLEEATVF | soluble
GSVASVHASISGSSASSTSSTPEVKPLKSLLGDSAPTLHLNKGMAILFAVVARGTTILAKHAWCGGNFLEVTEQILAKIPSENNKLTYSHGNYLFHYICQDRIVYLCITDDDFERSRAFSFLNEVKKRFQTTYGSRAQTALPYAMNSEFSSVLAAQLKHHSENHHHHHH | soluble
MSLKGQNQHSVLRNFPVLGRIRYISEKIGPELRQYFFANDNEGKPFSRSDYKNIVLAGKYKSRMTSFGTGKDYLEGFYIQNTMFPLQATELHIDHTEFISTFLYHIENERLFSREEYRKSAQVDPFFLTDEHAVVLGSNLKHPFKIKRLVGQSGMSYGALGKNAITALSMGLAKAGTWMNTGEGGLSEYHLKGNGDIIYQIGPGLFGVRDHDGNFNRDMFINLAEHNNVRAFEIKLAQGAKTRGGHMEGNKVTEEIARIRNVKPYETINSPNRFDFIKNPTDLLNFVNHLQSIGQKPVGFKIVVSKVEEIEALVKTMIEIDTYPSFITVDGGEGGTGATFQELEDGVGLPLFTALPIVSSMLEKYGIRNKVKIFASGKLVTPDKIAIALGLGADLVNIARGMMISVGCIMSQQCHLNTCPVGVATTDPKKEKGLIVDEKQYRVTNYVTSLHEGLFNIAAAVGVHSPTEITSDHIIYRQLDGTTTSIQDYKLKLISEGHHHHHH | not soluble
MTDSPGGVAPASPVEDASDASLGQPEEGAPCQVVLQGAELNGILQAFAPLRTSLLDSLLVMGDRGILIHNTIFGEQVFLPLEHSQFSRYRWRGPTAAFLSLVDQKRSLLSVFRANQYPDLRRVELAITGQAPFRTLVQRIWTTTSDGEAVELASETLMKRELTSFVVLVPQGTPDVQLRLTRPQLTKVLNATGADSATPTTFELGVNGKFSVFTTSTCVTFAAREEGVSSSTSTQVQILSNALTKAGQAAANAKTVYGENTHRTFSVVVDDCSMRAVLRRLQVGGGTLKFFLTTPVPSLCVTATGPNAVSAVFLLKPQK | soluble
MAIPKIASYPLPVSLPTNKVDWRIDASRAVLLIHDMQEYFVHYFDSQAEPIPSLIKHIQQLKAHAKQAGIPVVYTAQPANQDPAERALLSDFWGPGLSEETAIIAPLAPESGDVQLTKWRYSAFKKSPLLDWLRETGRDQLIITGVYAHIGILSTALDAFMFDIQPFVIGDGVADFSLSDHEFSLRYISGRTGAVKSTQQACLEIAAQHSKLTGLSLRTMQHDVAAALNLSVDEVDVQENLLFLGLDSIRAIQLLEKWKAQGADISFAQLMEHVTLQQWWQTIQANLHQPCSA | not soluble
MAARPITLGIDLGTTSVKAALLRAAPDDPSGFAVLASCARAARAEAAVESAVAGPQGREQDVSRILQALHECLAALPRPQLRSVVGIGVSGQMHGVVFWKTGQGCEWTEGGITPVFEPRAVSHLVTWQDGRCSSEFLASLPQPKSHLSVATGFGCATIFWLLKYRPEFLKSYDAAGTIHDYVVAMLCGLPRPLMSDQNAASWGYFNTQSQSWNVETLRSSGFPVHLLPDIAEPGSVAGRTSHMWFEIPKGTQVGVALGDLQASVYSCMAQRTDAVLNISTSVQLAASMPSGFQPAQTPDPTAPVAYFPYFNRTYLGVAASLNGGNVLATFVHMLVQWMADLGLEVEESTVYSRMIQAAVQQRDTHLTITPTVLGERHLPDQLASVTRISSSDLSLGHVTRALCRGIVQNLHSMLPIQQLQEWGVERVMGSGSALSRNDVLKQEVQRAFPLPMSFGQDVDAAVGAALVMLRRHLNQKES | not soluble
MGSDKIHHHHHHMIPWVISPYSFDGSVVRFEKLALLLKRKGLKSVILADRNFHAAVKFNTIMRKHGLIPVHGLWKDGRIFVARNREEFDSLVRYYNGETHEIEDIPVFQESELTPVRYLDASEKKASIFMRKIFGLDEDVQGFPEKCEDVADILNAEAYDLRVNHRFPTPPKNWNELLIKKAEPLGEEYISRLKRELEVIKRKGFTPYIYTVEKVVEIAKKMGIKVGPGRGSAVGSLVAYLCGITEVDPIKYDLLFERFLNEERQEPPDIDVDVEDRRRKDLIKELSKSFQVYQVSTFGNLTEKSLKNLINSVLPDASLEEKNEIYKTVYGLPHHPSVHAAGVVISENPLPLPTRTEEDIPITDYDMYDLQEIGVVKIDILGLKTLSFIKDFKKEIFDYSDEKTYHLISKGKTLGVFQLEGLQARKLCRRISPRNMDELSILLALNRPGPLRSGLDVMFSNSKNVPAFFRKMFPETRGVLIYQEQIMRLAMFAGLSGTEADILRRAIAKKEREKMEPLLEKMKKGLLEKGMENAEQILEILLNFSSYAFNKSHSVAYAHITYQTAYLKAHHLEEFFKLYFAYNSSDAGKIFLAVQELRNEGYRVHPPDINISGKDLVFHGKDVYLPLTVVKGVGVTLVEQIEKIRPVSSVRELQERVTGVPRNVVESLITAGAFDKLYENRKLALEELNKRVEKDILEIRSLFGEKVEQESSNIKIGDITELEEKSMGFPLTPVHEVPTGLFARIDDVFTYGRILPVLVKRVSRNIVTDGLSVCRVRTDVPDGVHLVLLSPLQKIIKIWPFNENTRFVYRVDFTATLEKAGQNEITEVLKNGAVVRYEGYRPLTDEYRYRVVPR | not soluble
MDAEGNLFMSWRDGGTFGIARINEQQNIVTPLIEADAANRILYANGLTVDRATGMLTAAHESVKEVTFTFDPREAWYPRQRNIKYSQSDLNSIVDADRYKNFVTFCPYDGYLYTRYRDGKIAKIDPNTFEGHIIHQGPSGSQYGQAINPAKPWLLYITLHSNAPTAYRQGISVLDLRDPDGTGGFKRLNAPGGSAFRDGPIEDALFNYPKDIKFDNDGNMFVADYGNHCIRMISADNIVTTVAGQPGVAGYKDGGPVESLFKNPWGVAVNEQGDIYIADWGNARIRKLVIELEHHHHHH | not soluble
MAHHHHHHMSLADPHPLEAATTPASSLSNSIRLALLPASMKLPRDKSSSPELLAVFLPPDFCCMSVKSSTQNSSLFSSGISTVSPGRGCSVMEWRAIMQPVLLSLFKHWSVAAIRPGLFRRFCVGDVLFARERKLANSTPSAPCVNFPHRSTRVGAPRALRADCSSSSSSCKERKRHEWQDSRASESQEASPLLETSLPLLLWSSG | soluble
